Assays:
[1] = molecular target: PAL/TAL from Trichosporon cutaneum (TcPAL) (Trichosporon cutaneum); assay: SEC-MALS; analytical SEC on Superdex200 Increase 10/300 GL in filtered PBS pH 7.4, 50 ul of ca. 1-2 mg/ml enzyme, 0.75 ml/min, miniDAWN MALS detector; self-association (tetramer and larger oligomers)
PAML_A1 [2] = tested on: T1, PAML_A1; assay: p-coumaric acid formation at […] nm, Michaelis-Menten fit; type: biochemical, synthetic construct; settings: 50 mM Tris-HCl, pH 9.2, 37 °C; read-out: L-Tyr^a / KM^c
T1 construct: N-terminal 6xHis tag, E. coli BL21(DE3); tetramer

MEGA_A3 [3] = tested on: T2, MEGA_A3; assay: as above; type: biochemical, synthetic construct; settings: 50 mM Tris-HCl, pH 9.2, 37 °C; read-out: L-Tyr^a / KM^c
T2 construct: N-terminal 6xHis tag, E. coli BL21(DE3); tetramer

MEGA_A1 [4] = tested on: T3, MEGA_A1; assay: as above; type: biochemical, synthetic construct; settings: 50 mM Tris-HCl, pH 9.2, 37 °C; read-out: L-Tyr^a / KM^c
T3 construct: N-terminal 6xHis tag, E. coli BL21(DE3); tetramer

MEGA_A1 [5] = tested on: T3, MEGA_A1; assay: trans-cinnamic acid formation at […] nm, Michaelis-Menten fit; type: biochemical, synthetic construct; settings: 50 mM Tris-HCl, pH 9.2, 37 °C; read-out: L-Phe^a / KM^c
PAML_A2 = tested on: T4, PAML_A2; assay: as above; type: biochemical, synthetic construct; settings: 50 mM Tris-HCl, pH 9.2, 37 °C; read-out: L-Phe^a / KM^c
T4 construct: N-terminal 6xHis tag, E. coli BL21(DE3); tetramer

PAML_A1 [6] = tested on: T1, PAML_A1; assay: as above; type: biochemical, synthetic construct; settings: 50 mM Tris-HCl, pH 9.2, 37 °C; read-out: L-Phe^a / KM^c
MEGA_A3 [7] = tested on: T2, MEGA_A3; assay: as above; type: biochemical, synthetic construct; settings: 50 mM Tris-HCl, pH 9.2, 37 °C; read-out: L-Phe^a / KM^c
[8] = molecular target: PAL/TAL from Rhodotorula glutinis (RgPAL) (Rhodotorula glutinis); assay: SEC-MALS; analytical SEC on Superdex200 Increase 10/300 GL in filtered PBS pH 7.4, 50 ul of ca. 1-2 mg/ml enzyme, 0.75 ml/min, miniDAWN MALS detector; self-association (tetramer and larger oligomers)
purified protein [9] = substrate: N[C@@H](Cc1ccccc1)C(=O)O; assay: purified protein; type: biochemical, Rhodotorula glutinis; settings: 50 mM Tris-HCl, pH 9.2, 37 °C
purified protein [10] = substrate: N[C@@H](Cc1ccc(O)cc1)C(=O)O; assay: purified protein; type: biochemical, Rhodotorula glutinis; settings: 50 mM Tris-HCl, pH 9.2, 37 °C

## PAL/TAL from Trichosporon cutaneum (TcPAL) (enzyme)
[1]
  stoichiometry N: 4

## N[C@@H](Cc1ccc(O)cc1)C(=O)O [L-tyrosine]
PAML_A1 [2]
  Km: 2690 ± 10 µM
MEGA_A3 [3]
  Km: 50 ± 10 µM
MEGA_A1 [4]
  Km: 400 ± 20 µM

## N[C@@H](Cc1ccccc1)C(=O)O [L-phenylalanine]
MEGA_A1 [5]
  Km: 3830 ± 970 µM
PAML_A2
  Km: 690 ± 150 µM
PAML_A1 [6]
  Km: 4480 ± 620 µM
MEGA_A3 [7]
  Km: 350 ± 30 µM

## PAL/TAL from Rhodotorula glutinis (RgPAL) (enzyme)
[8]
  stoichiometry N: 4

B1: RgPAL (Rhodotorula glutinis) (protein)
chain: MAPSVDSIATSVANSLSNGLHAAAAANGGDVHKKTAGAGSLLPTTETTQLDIVERILADAGATDQIKLDGYTLTLGDVVGAARRGRSVKVADSPHIREKIDASVEFLRTQLDNSVYGVTTGFGGSADTRTEDAISLQKALLEHQLCGVLPTSMDGFALGRGLENSLPLEVVRGAMTIRVNSLTRGHSAVRIVVLEALTNFLNHGITPIVPLRGTISASGDLSPLSYIAASITGHPDSKVHVDGKIMSAQEAIALKGLQPVVLGPKEGLGLVNGTAVSASMATLALTDAHVLSLLAQALTALTVEAMVGHAGSFHPFLHDVTRPHPTQIEVARNIRTLLEGSKYAVHHETEVKVKDDEGILRQDRYPLRCSPQWLGPLVSDMIHAHAVLSLEAGQSTTDNPLIDLENKMTHHGGAFMASSVGNTMEKTRLAVALMGKVSFTQLTEMLNAGMNRALPSCLAAEDPSLSYHCKGLDIAAAAYTSELGHLANPVSTHVQPAEMGNQAINSLALISARRTAEANDVLSLLLATHLYCVLQAVDLRAMEFEHTKAFEPMVTELLKQHFGALATAEVEDKVRKSIYKRLQQNNSYDLEQRWHDTFSVATGAVVEALAGQEVSLASLNAWKVACAEKAIALTRSVRDSFWAAPSSSSPALKYLSPRTRVLYSFVREEVGVKARRGDVYLGKQEVTIGTNVSRIYEAIKSGRIAPVLVKMMA
notes: full-length codon-optimized gene, N-terminal 6xHis tag, pET22b(+), E. coli BL21(DE3); homotetramer; MIO cofactor from Ala-Ser-Gly
Purified protein [9]
  Km: 1350 ± 100 µM
  kcat: 8.95 ± 0.37 s⁻¹
  kcat/Km: 6660 ± 259 M⁻¹ s⁻¹
Purified protein [10]
  Km: 280 ± 10 µM
  kcat: 1.71 ± 0.11 s⁻¹
  kcat/Km: 6300 ± 288 M⁻¹ s⁻¹
